According to patent US20100247590A1, “Peptide-Based Systems For Delivery Of Cosmetic Agents” (JOHNSON & JOHNSON, priority 2009, published 2010):

Key:
[1] = Peptide-mediated binding of Co-NTA magnetic beads to gray hair, visual rating on magnet; parameters: species or system human
Procedure: Approximately 5 mg of 5 mm long hair strands (90% gray, human) were transferred to 2-mL microcentrifuge tubes. Approximately 1 mL of TBST0.1 buffer (25 mM Tris, 150 mM NaCl, pH7.2, with 0.1% TWEEN®-20) or the same buffer including varying concentrations of HC263 peptide was added to the hair.
The mixtures were shaken on a Nutator for one hour at room temperature (˜22° C.). The hairs were washed three times with TBST0.5 buffer (25 mM Tris, 150 mM NaCl, pH 7.2, with 0.5% TWEEN®-20). After washing, the hairs were resuspended in 900 μL Talon buffer (50 mM sodium phosphate, pH 8.0, 300 mM sodium chloride, 0.01% TWEEN®-20). A subset of hair/peptide conjugates were washed additionally one time with 1 mL of 0.25% SLES (Sodium Lauryl Ether Sulfate) for 5 min at room temperature on the Nutator, then washed two times with 1 mL TBST0.1 buffer. Approximately 0.2 mg of TALON™ beads (DYNABEADS® TALONT™, Invitrogen, Catalog#101.01D) were washed twice with TALON™ buffer on the DYNAL® MPC™ magnet and added to each reaction in 100 μL TALON™ buffer. The magnetic beads were coated with Co-NTA, which specifically binds to the six histidine residues incorporated into the peptide (C-terminal his tag). The hair and beads were incubated for 10 minutes with gentle shaking before the tubes were placed on the magnet.
Beads binding to the hair were expected to co-migrate on the sides of the tubes once applied to the magnet. The strength of binding was visually assessed and rated on a scale of 0 (little or no observed binding) to 5 (highest amount of observed binding).
The hair binding assay of Example 3 was used to assess the strength of binding of the test peptides in Table 10.

[2] = HC263-mediated binding of magnetic beads to surfaces, SEM score: cellulose; details: surface cellulose (filter paper), 0.2 μM HC263
Procedure: (§1) Peptide HC263 (SEQ ID NO: 196) was tested for peptide-mediated binding of magnetic beads to various surfaces: human hair, yak hair, wool, cotton, SONTARA® (a nonwoven, spunlaced textile sheet fabric, E.I. duPont de Nemours and Company, Inc., Wilmington, Del.), and cellulose (filter paper). Approximately 5 mg of human hair (90% gray), yak hair, wool, cotton, SONTARA®, or filter paper were added to 2-mL microcentrifuge tubes. Approximately 1 mL of TBST0.1 buffer (25 mM Tris, 150 mM NaCl, pH 7.2, with 0.1% TWEEN®-20) containing 0.2 μM HC263 was added. The mixtures were shaken on a Nutator (BD Diagnostics, Franklin Lakes, N.J.) for 30 minutes at room temperature (˜22° C.). The samples were washed three times with TBST0.5 buffer (25 mM Tris, 150 mM NaCl, pH 7.2, with 0.5% TWEEN®-20). After washing, the samples were re-suspended in 900 μL TALON™ (Clontech, Mountain View, Calif.) buffer (50 mM sodium phosphate, pH 8.0, 300 mM sodium chloride, 0.01% TWEEN®-20). Approximately 0.2 mg of TALON™ beads (DYNABEADS® TALON™, Invitrogen, Carlsbad, Calif.; Catalog#101.01D) were washed twice with TALON™ buffer on the DYNAL® MPC™ magnet (Invitrogen) and added to each reaction in 100-μL TALON™ buffer.
(§2) The strength of binding of the magnetic beads to the various surfaces was evaluated by visualization of scanning electron microscope (SEM) images taken at 1000-fold magnification.

[3] = HC263-mediated binding of magnetic beads to surfaces, SEM score: SONTARA; details: surface SONTARA, 0.2 μM HC263
Procedure: as §1, §2

[4] = HC263-mediated binding of magnetic beads to surfaces, SEM score: cotton; details: surface cotton, 0.2 μM HC263
Procedure: as §1, §2

[5] = HC263-mediated binding of magnetic beads to surfaces, SEM score: wool; details: surface wool, 0.2 μM HC263
Procedure: as §1, §2

[6] = HC263-mediated binding of magnetic beads to surfaces, SEM score: yak hair; details: surface yak hair, 0.2 μM HC263
Procedure: as §1, §2

B1: MASGSDPS-Hair2Rnd1-GPEPEPEPEPIPEPPKEAPVVIEKPKPKPKPKPKPPA-Gray3Rnd4-GSGGGGSP-HHHHHH (peptide)
chain: MASGSDPSDRSKLYQSLEHRQPPGAHAQGPEPEPEPEPIPEPPKEAPVVIEKPKPKPKPKPKPPAAHDAKHEHRKQNHTQGSGGGGSPHHHHHH
Strength of binding (5 highest, 0 lowest) ([1]; Table 11, peptide 0.002 μM): 2 | Strength of binding (5 highest, 0 lowest) ([1]; Table 11, peptide 0.02 μM): 5 | Strength of binding (5 highest, 0 lowest) ([1]; Table 11, peptide 0.2 μM): 5

B2: MASGSDPS-Hair2-GPEPEPEPEPIPEPPKEAPVVIEKPKPKPKPKPKPPA-Gray3-GSGGGGSP-HHHHHH (peptide)
chain: MASGSDPSAQSQLPDKHSGLHERAPQRYGPEPEPEPEPIPEPPKEAPVVIEKPKPKPKPKPKPPAHDHKNQKETHQRHAAGSGGGGSPHHHHHH
Strength of binding (5 highest, 0 lowest) [2]: 0 | Strength of binding (5 highest, 0 lowest) [3]: 0 | Strength of binding (5 highest, 0 lowest) ([1]; Table 9, peptide 0.002 μM, no SLES wash): 2 | Strength of binding (5 highest, 0 lowest) ([1]; Table 11, peptide 0.002 μM): 2 | Strength of binding (5 highest, 0 lowest) ([1]; Table 11, peptide 0.02 μM): 5 | Strength of binding (5 highest, 0 lowest) ([1]; Table 11, peptide 0.2 μM): 5 | Strength of binding (5 highest, 0 lowest) [4]: 0 | Strength of binding (5 highest, 0 lowest) [5]: 0 | Strength of binding (5 highest, 0 lowest) [6]: 1
